The source of these data is patent publication US20190169256A1 (YISSUM RESEARCH DEVELOPMENT COMPANY OF THE HEBREW …, published 2019).

Numbered stars: 1 amine (or outer) side, 2 acyl side, 3 side chain; on linkers, the order of the positions; unused ones are H or OH. Square brackets hold non-standard residues; d marks the D form. Suc = O=C(CCC(=O)[*:2])[*:1]; NMeV = CN[C@H](C(=O)O)C(C)C; βAla = NCCC(=O)O

Targets include Tilapia tac3 receptor (tilapia); Zebrafish tac3 receptor (zebrafish); Salmon tac3 receptor (salmon).
Common to all, as to experiment: cell-based or functional assay

B1: Ant-6 (peptide)
peptide: Suc-DS[dW][NMeV][βAla]LM-NH2
SMILES: CSCC[C@H](NC(=O)[C@H](CC(C)C)NC(=O)CCNC(=O)[C@H](C(C)C)N(C)C(=O)[C@@H](Cc1c[nH]c2ccccc12)NC(=O)[C@H](CO)NC(=O)[C@H](CC(=O)O)NC(=O)CCC(=O)O)C(N)=O
Take B1: the “reduction of the NKB-induced luciferase response (CRE-Luc)” value with Tilapia tac3 receptor and with Salmon tac3 receptor was about 60% in each case. Besides, the “reduction of the NKB-induced response (CRE-Luc)” value with Zebrafish tac3 receptor is about 60%. Further, the “IC50 of inhibition of slNKB-induced SRE-Luciferase activity” value with Salmon tac3 receptor stood at 870 nM.

B2: Ant-3 (peptide)
peptide: Suc-DSF[NMeV][βAla]LM-NH2
SMILES: CSCC[C@H](NC(=O)[C@H](CC(C)C)NC(=O)CCNC(=O)[C@H](C(C)C)N(C)C(=O)[C@H](Cc1ccccc1)NC(=O)[C@H](CO)NC(=O)[C@H](CC(=O)O)NC(=O)CCC(=O)O)C(N)=O
For B2, the “reduction of the NKB-induced luciferase response (CRE-Luc)” value with Tilapia tac3 receptor was about 60%. Moreover, the “reduction of the NKB-induced response (CRE-Luc)” value with Zebrafish tac3 receptor is about 60%. Moreover, in the test with Salmon tac3 receptor, the “IC50 of inhibition of slNKB-induced SRE-Luciferase activity” value was 6.16 nM.

B3: Ant-1 (peptide)
peptide: Suc-DIF[NMeV][βAla]LM-NH2
SMILES: CC[C@H](C)[C@H](NC(=O)[C@H](CC(=O)O)NC(=O)CCC(=O)O)C(=O)N[C@@H](Cc1ccccc1)C(=O)N(C)[C@H](C(=O)NCCC(=O)N[C@@H](CC(C)C)C(=O)N[C@@H](CCSC)C(N)=O)C(C)C
For B3, the “reduction of the NKB-induced luciferase response (CRE-Luc)” value in the test with Tilapia tac3 receptor is about 60%. Besides, the “reduction of the NKB-induced response (CRE-Luc)” value with Zebrafish tac3 receptor is about 60%.

B4: Ant-4 (peptide)
peptide: Suc-DI[dW][NMeV][βAla]LM-NH2
SMILES: CC[C@H](C)[C@H](NC(=O)[C@H](CC(=O)O)NC(=O)CCC(=O)O)C(=O)N[C@H](Cc1c[nH]c2ccccc12)C(=O)N(C)[C@H](C(=O)NCCC(=O)N[C@@H](CC(C)C)C(=O)N[C@@H](CCSC)C(N)=O)C(C)C
As for B4, the “reduction of the NKB-induced luciferase response (CRE-Luc)” value with Tilapia tac3 receptor and in the test with Salmon tac3 receptor was about 60% throughout. Besides, in the test with Zebrafish tac3 receptor, the “reduction of the NKB-induced response (CRE-Luc)” value is about 60%.

B5: Ant-2 (peptide)
peptide: Suc-DF[NMeV][βAla]LM-NH2
SMILES: CSCC[C@H](NC(=O)[C@H](CC(C)C)NC(=O)CCNC(=O)[C@H](C(C)C)N(C)C(=O)[C@H](Cc1ccccc1)NC(=O)[C@H](CC(=O)O)NC(=O)CCC(=O)O)C(N)=O
For B5, the “reduction of the NKB-induced luciferase response (CRE-Luc)” value with Tilapia tac3 receptor was about 60%. Also, the “reduction of the NKB-induced response (CRE-Luc)” value in the test with Zebrafish tac3 receptor is about 60%. In addition, the “IC50 of inhibition of slNKB-induced SRE-Luciferase activity” value in the test with Salmon tac3 receptor was 2600 nM.

B6: Ant-5 (peptide)
peptide: Suc-D[dW][NMeV][βAla]LM-NH2
SMILES: CSCC[C@H](NC(=O)[C@H](CC(C)C)NC(=O)CCNC(=O)[C@H](C(C)C)N(C)C(=O)[C@@H](Cc1c[nH]c2ccccc12)NC(=O)[C@H](CC(=O)O)NC(=O)CCC(=O)O)C(N)=O
B6: the “reduction of the NKB-induced luciferase response (CRE-Luc)” value with Tilapia tac3 receptor is about 60%. Moreover, the “reduction of the NKB-induced response (CRE-Luc)” value in the test with Zebrafish tac3 receptor is about 60%.
